Here are results for eleven molecules from US20240076386A1 (Pfizer, published 2024).

The EC50 is the concentration giving half of the maximal effect. High values mean a need for much substance, low ones an effect from little substance. In general, IC50 refers to the concentration at which inhibition is half-maximal.

Numbering of substitutions follows the chain as printed.

The target of assay [1] is T1, human E-selectin extracellular domain with 10 His purification tail (human, UniProt P16581 22-556).
T1 construct: also called soluable human E-selectin extracellular domain; rhE-Selectin
T1 sequence: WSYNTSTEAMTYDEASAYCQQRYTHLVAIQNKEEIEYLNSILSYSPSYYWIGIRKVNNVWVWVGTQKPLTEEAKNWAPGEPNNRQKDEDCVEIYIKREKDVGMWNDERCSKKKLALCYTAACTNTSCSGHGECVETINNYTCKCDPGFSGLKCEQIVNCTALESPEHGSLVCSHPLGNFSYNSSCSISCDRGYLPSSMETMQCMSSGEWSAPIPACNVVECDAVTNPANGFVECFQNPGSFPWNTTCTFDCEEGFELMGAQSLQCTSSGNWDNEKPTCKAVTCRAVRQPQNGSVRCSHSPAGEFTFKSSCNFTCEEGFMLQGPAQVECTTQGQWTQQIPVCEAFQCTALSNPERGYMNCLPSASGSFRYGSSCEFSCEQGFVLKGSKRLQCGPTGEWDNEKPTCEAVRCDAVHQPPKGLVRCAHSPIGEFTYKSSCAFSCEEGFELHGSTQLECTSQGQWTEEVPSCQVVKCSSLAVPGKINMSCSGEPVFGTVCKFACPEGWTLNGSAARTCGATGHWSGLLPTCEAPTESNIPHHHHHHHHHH
Put plainly: antigen binding ELISA, HRP detection. How it is done:
(§1) 384-well Maxisorp plates were used to capture the human and mouse His-tagged recombinant E-selectin polypeptides. The polypeptides were incubated with chimeric antibodies of varying concentrations and detected with HRP-labeled anti-human IgG1 antibodies.
On the technique in general: An ELISA detects its analyte on a solid surface through an enzyme-linked reagent.

Assay [2] has as its target T2, mouse E-selectin extracellular domain with 10 His purification tail (mouse, UniProt Q00690 22-557).
T2 construct: also called soluable mouse E-selectin extracellular domain; muE-Selctin
T2 sequence: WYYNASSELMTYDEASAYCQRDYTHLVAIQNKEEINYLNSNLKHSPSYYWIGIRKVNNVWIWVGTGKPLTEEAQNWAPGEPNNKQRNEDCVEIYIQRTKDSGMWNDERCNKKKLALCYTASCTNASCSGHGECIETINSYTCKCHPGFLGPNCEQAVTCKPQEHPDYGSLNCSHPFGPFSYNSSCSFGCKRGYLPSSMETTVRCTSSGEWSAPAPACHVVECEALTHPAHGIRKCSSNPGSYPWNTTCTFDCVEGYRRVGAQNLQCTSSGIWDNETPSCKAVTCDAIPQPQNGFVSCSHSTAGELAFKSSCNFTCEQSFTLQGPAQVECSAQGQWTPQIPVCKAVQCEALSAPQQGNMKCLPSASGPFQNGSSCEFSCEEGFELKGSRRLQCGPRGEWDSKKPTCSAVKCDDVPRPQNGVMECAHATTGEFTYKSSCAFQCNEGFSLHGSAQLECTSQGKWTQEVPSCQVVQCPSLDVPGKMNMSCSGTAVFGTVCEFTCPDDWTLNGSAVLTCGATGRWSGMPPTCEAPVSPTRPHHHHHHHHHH
Put plainly: antigen binding ELISA, HRP detection. How it is done:
as §1

In assay [3] the target is T2, mouse E-selectin extracellular domain …. Put plainly: AlphaLISA competition vs sialyl Lewis A-PAA-biotin. As to the method: The neutralization ability of anti-E-selectin antibodies was measured in an AlphaLISA homogenous competition assay. […] This was incubated at room temperature for 15 minutes, followed by addition of 1.4 μL of human, mouse or cynomolgus monkey E-selectin added to a final concentration of 7 nM. This was again incubated at room temperature for 15 minutes. To this, 1.4 μL AlphaLISA beads was added (Ni-donor/SA-acceptor) for a final assay concentration of 10 μg/mL. This was incubated in the dark at room temperate for at least 10 hours. The plates were then read using the AlphaLISA protocol (Envision).
In general terms: Bead proximity is the source of the signal in Alpha formats.

Assay [4] concerns the target T3, human E-selectin, cell-surface expressed (human, UniProt P16581 22-610).
T3 construct: also called CHO-human E-selectin cells; human CHO-E
T3 sequence: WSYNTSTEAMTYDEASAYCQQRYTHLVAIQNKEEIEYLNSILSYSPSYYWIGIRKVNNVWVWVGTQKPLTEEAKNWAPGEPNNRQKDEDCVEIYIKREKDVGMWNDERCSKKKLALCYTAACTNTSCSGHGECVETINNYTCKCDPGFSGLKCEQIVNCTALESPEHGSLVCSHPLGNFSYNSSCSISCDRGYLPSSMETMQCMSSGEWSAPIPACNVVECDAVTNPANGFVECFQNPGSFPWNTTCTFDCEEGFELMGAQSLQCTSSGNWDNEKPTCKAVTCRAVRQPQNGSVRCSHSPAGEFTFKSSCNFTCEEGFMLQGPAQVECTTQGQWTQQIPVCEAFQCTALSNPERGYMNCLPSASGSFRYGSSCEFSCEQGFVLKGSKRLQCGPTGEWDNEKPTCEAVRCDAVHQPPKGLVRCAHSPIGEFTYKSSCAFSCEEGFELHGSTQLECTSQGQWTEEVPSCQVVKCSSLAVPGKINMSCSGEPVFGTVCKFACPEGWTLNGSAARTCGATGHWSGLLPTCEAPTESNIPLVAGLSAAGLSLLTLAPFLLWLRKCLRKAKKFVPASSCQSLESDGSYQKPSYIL
Put plainly: competition ELISA on CHO cells vs sialyl Lewis ligand-PAA-biotin/SA-HRP. How it is done:
In a static ligand cellular adhesion assay, horse radish peroxidase (HRP) conjugated E-selectin ligand (sialyl Lewis antigen) and E-selectin antibodies compete for binding to human or cynomolgus E-selectin expressed on Chinese hamster ovary (CHO) cells. The ability of anti-E-selectin antibodies to neutralize ligand binding was assessed in a static neutralization assay using a competition enzyme-linked immunosorbent assay (ELISA) to evaluate the neutralization of the sialyl Lewis antigen to Chinese hamster ovary cells (CHO) engineered to express human or cynomolgus monkey E-selectin.
CHO cells expressing E-selectin were seeded at 12,500 cells per well into a 96 well tissue culture plate and incubated at 37° C., 5% CO₂ for 48 hours to form a confluent monolayer. Plates were subsequently washed twice with 200 μL of calcium magnesium free PBS. Anti-E-selectin antibodies or an IgG1 isotype control (IgG control) were added to the assay in the presence of a small synthetic conjugate of biotinylated, sialyl Lewis A polyacrylamide (Carbosynth LLC, OS45446) or sialyl Lewis X polyacrylamide (Glycotech, 01-045) with streptavidin/horseradish peroxidase (100 μL total) and incubated at 37° C., 5% CO₂ for 2 hours. Plates were then washed twice with 200 μL of calcium and magnesium free PBS. Following the incubation, the cells were washed twice with 200 μL of wash buffer containing 2 mM of calcium chloride (50 mM TRIS [trisaminomethane], 150 mM sodium chloride; 0.05% polysorbate 20, pH 7.4; 2 mM calcium chloride). Signal was developed by adding 100 μL of 1-Step Ultra TMB substrate (Thermo Scientific, 34028) and incubating for 30 minutes at room temperature. Reactions were stopped using 2 M of sulfuric acid and absorbance was read at 450 nm (Spectramax M5e). Data were analyzed and graphed using GraphPad Prism software (Version 8.0.2).

B1: anti-E-selectin antibody 0039 chimera (antibody, human IgG1, kappa, V domains shown)
VH: QVQLKETGPGLVQPTQTLSITCTVSGFSLTGYYMQWVRQTPGKGLEWMGFIRSSGSTEYNSEFKSRLSISRDTSKNQVFLKMNSLKTEDTGVYYCARCPYKYSSFVYVGVMDAWGQGAPVTVSS
VL: EIVMTQSPTSMSTSIGERVTLNCKASQTVGINVDWYQQTPGQPPKLLIYGASNRHTGVPDRFTGSGFGRDFTLTISNVEAEDLAVYCCLQYGSIPHTFGPGTKLELKR
notes: rat VH/VL on effector-null human IgG1 and human kappa
With B1, the EC50 in assay [1] was 0.02 nM; in assay [2] it was more than 133 nM; in assay [3] it was more than 133 nM.

B2: anti-E-selectin antibody 0159 chimera (antibody, human IgG1, kappa, V domains shown)
VH: EVQLQQSGAELGKPGTSVKLSCKVSGYNIRSTYMHWVSQRPGKGLEWIGRIDPANGNTIYAEKFKRKATLTADTSSNTAYMQLSQLKSDDRAIYFCAMEVRVSFEYWGQGVMVTVSS
VL: DIQMTQSPSFLSASVGDRVTINCKASQNINKYLDWYQQKLGEGPKLLIYYTNNLHTGIPSRFSGSGSGTDFTLTISSLQPEDVATYFCLQHDSGYTFGAGTKLELKR
notes: as for B1
Take B2: the figures for the EC50 in assay [1], in assay [2] and in assay [3] were 0.02 nM, more than 133 nM and more than 133 nM, respectively.

B3: anti-E-selectin antibody 0170 chimera (antibody, human IgG1, kappa, V domains shown)
VH: EVQLQQSGAELGKPGTSVKLSCKVSGYSIRSTYMHWVNQRPGKGLEWVGRIDPANGNTIYAERFKNKATLTADTSSNTAYMQLSQLKSDDTAIYFCAVEILGIFDYWGQGVMVTVSS
VL: B2 VL with N30D, G43A, I48M, Y50N, N53S, D92N
notes: as for B1
As for B3, the EC50 in assay [1] is 0.01 nM; in assay [2], more than 133 nM; in assay [3] it was more than 133 nM.

B4: humanized anti-E-selectin antibody 0841 (antibody, human IgG1, kappa, V domains shown)
VH: EVQLVESGGGLVQPGGSLRLSCAASGYNIRSSYMHWVRQAPGKGLEWVARIDPANGNTIYAEKFKIRFTISADNAKNSAYLQMNSLRAEDTAVYYCAMDLYSTSEYWGQGTLVTVSS
VL: DIQMTQSPSSLSASVGDRVTITCKTSQNINRYLNWYQQKPGKAPKLLIYNANSLQTGVPSRFSGSGSGTDFTLTISSLQPEDFATYFCLQDNSWPLTFGQGTKVEIKR
notes: effector-null human IgG1, kappa
In assay [4], B4 showed an IC50 of 2.56 nM.

B5: optimized anti-E-selectin antibody 1282 (antibody, human IgG1, kappa, V domains shown)
VH: B4 VH with N28A, S32A, A61V, E62D, K63S, F64V, K65E, I66G
VL: B4 VL with N30E, N50A, N52S, T56S, S93A
notes: as for B4
For B5, in assay [4], the IC50 is 1.38 nM.

B6: optimized anti-E-selectin antibody 1448 (antibody, human IgG1, kappa, V domains shown)
VH: B4 VH with N28A, S32A, A61V, E62D, K63S, F64V, I66E
VL: B4 VL with N30E, N50A, N52S, T56S, S93A
notes: as for B4
Take B6: in assay [4], the IC50 amounted to 2.78 nM.

B7: optimized anti-E-selectin antibody 1284 (antibody, human IgG1, kappa, V domains shown)
VH: B4 VH with N28A, S32A, A61V, K63S, F64V, K65E, I66G
VL: B4 VL with N30E, N50A, N52S, T56S, S93A
notes: as for B4
Take B7: in assay [4], the IC50 stood at 2.77 nM.

B8: optimized anti-E-selectin antibody 1444 (antibody, human IgG1, kappa, V domains shown)
VH: B4 VH with N28A, S32A, A61V, E62D, K63S, F64V, K65T, I66G
VL: B4 VL with N30E, N50A, N52S, T56S, S93A
notes: as for B4
B8 registered a 50% inhibitory concentration (IC50) in assay [4] of 2.89 nM.

B9: anti-E-selectin antibody 0180 chimera (antibody, human IgG1, kappa, V domains shown)
VH: EVQLQQSGAELGKPGTSVKLSCKVSGYKIRSSYMHWVNQRPGKGLEWIGRIDPANGNTIYGDKFKSKATLTSDTSSNTAYIQLSQLKSDDTAIYFCAIDIGTTFDYWGQGVMVTVSS
VL: DIQMTQSPSFLSASVGDRVTINCKASQHINRYLNWYQQKLGEAPKLLIYDANNLQTGIPSRFSGSGSGTDFTLTISSLQPEDVATYFCLQHNSWPNTFGAGTKLELKR
notes: as for B1
Turning to B9, the half-maximal effective concentration (EC50) was 0.01 nM in assay [1], more than 133 nM in assay [2] and more than 133 nM in assay [3].

B10: anti-E-selectin antibody 0164 chimera (antibody, human IgG1, kappa, V domains shown)
VH: EVQLQQSGAEFGKPGTSVKLSCKVSGYNIRSSYMHWVNQRPGKGLEWIGRIDPANGNTIYAEKFKIKAILTADSSSNTAYMQLSQLKSDDTAIYFCAMDLYSTSEYWGQGVMVTVSS
VL: B9 VL with A25T, H28N, D50N, N53S, G64A, S76N, H91D, N96L, A100S, L106I
notes: as for B1
As to B10, the EC50 in assay [1] is 0.02 nM; in assay [2], more than 133 nM; in assay [3], more than 133 nM. In assay [4], the IC50 came out at 2.69 nM.

B11: anti-E-selectin antibody 0158 chimera (antibody, human IgG1, kappa, V domains shown)
VH: QVQLKESGPGLVQPSETLSLTCTVSGFSISTYNVHWLRQPPGKGLEWMGMMWSGGSPDYNSALKSRLSISRDTSKNQVFLKMNSLQSEDTTTYYCARWGGGFDYWGQGVMVTVSS
VL: DIVLTQSPTTLSVTPGETVSLSCRASHSIGTNLHWYQQKTNESPRLLIKFTSQSISGIPSRFSASGSGTDFTLNINNVEFDDVSSYFCQQTQSWPLTFGSGTKLEIKR
notes: as for B1
Turning to B11, the EC50 was 0.03 nM in assay [1], more than 133 nM in assay [2] and more than 133 nM in assay [3].
